Our source for the Kd values is paper PMC2873218.

C. elegans KMN network containing KNL-1SD and the MIS-12SD complex, sequence (Q17635 whole entry, looked up): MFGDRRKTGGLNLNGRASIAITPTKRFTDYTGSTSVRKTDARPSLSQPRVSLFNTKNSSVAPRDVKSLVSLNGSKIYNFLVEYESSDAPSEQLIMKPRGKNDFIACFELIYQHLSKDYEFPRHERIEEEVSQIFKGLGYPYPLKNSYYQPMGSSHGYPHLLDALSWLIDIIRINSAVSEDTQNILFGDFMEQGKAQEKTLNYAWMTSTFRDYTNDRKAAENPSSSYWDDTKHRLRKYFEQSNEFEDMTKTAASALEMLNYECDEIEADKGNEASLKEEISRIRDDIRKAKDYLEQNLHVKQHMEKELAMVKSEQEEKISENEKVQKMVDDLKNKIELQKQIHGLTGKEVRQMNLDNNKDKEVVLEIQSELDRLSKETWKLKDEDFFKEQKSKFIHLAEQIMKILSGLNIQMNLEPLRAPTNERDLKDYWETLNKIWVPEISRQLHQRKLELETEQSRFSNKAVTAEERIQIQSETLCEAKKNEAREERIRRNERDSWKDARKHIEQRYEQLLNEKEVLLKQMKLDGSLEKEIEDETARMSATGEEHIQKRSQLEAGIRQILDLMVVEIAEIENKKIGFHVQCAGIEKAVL
C. elegans KMN network containing KNL-1SD and the MIS-12SD complex, sequence (P34278 whole entry, looked up): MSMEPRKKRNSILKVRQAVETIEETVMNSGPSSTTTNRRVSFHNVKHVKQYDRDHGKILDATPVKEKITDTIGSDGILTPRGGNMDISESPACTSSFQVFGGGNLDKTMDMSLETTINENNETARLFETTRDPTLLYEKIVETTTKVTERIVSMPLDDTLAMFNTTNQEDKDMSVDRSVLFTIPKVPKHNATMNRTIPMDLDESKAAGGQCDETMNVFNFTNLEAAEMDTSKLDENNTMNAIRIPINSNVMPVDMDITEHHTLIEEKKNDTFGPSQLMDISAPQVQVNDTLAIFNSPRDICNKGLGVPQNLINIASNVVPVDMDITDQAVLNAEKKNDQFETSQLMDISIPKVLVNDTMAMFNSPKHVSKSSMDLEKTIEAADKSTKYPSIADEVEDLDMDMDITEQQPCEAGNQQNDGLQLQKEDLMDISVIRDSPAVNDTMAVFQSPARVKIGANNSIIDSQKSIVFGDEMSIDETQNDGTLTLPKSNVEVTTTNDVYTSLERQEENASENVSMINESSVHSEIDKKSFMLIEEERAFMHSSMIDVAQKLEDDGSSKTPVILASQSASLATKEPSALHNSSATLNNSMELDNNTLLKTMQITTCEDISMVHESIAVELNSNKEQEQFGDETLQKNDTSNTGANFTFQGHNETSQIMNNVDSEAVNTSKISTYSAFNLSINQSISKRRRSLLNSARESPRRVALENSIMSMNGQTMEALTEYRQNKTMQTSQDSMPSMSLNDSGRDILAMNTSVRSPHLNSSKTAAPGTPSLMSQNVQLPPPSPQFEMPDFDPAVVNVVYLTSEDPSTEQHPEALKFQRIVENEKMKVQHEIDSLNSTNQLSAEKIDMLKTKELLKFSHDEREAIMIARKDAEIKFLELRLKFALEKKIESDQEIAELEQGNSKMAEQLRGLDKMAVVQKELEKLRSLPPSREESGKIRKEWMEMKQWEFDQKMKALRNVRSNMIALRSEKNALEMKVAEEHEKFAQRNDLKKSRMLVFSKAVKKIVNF
C. elegans KMN network containing KNL-1SD and the NDC-80SD complex, sequence (Q17635 whole entry, looked up): as the sequence (Q17635 whole entry, looked up) above
C. elegans KMN network containing KNL-1SD and the NDC-80SD complex, sequence (P34278 whole entry, looked up): as the sequence (P34278 whole entry, looked up) above

The target of the experiment is microtubules. The experiment can be described thus: co-sedimentation.
microtubules, sequence (P68363 whole entry, chain 1 of 2): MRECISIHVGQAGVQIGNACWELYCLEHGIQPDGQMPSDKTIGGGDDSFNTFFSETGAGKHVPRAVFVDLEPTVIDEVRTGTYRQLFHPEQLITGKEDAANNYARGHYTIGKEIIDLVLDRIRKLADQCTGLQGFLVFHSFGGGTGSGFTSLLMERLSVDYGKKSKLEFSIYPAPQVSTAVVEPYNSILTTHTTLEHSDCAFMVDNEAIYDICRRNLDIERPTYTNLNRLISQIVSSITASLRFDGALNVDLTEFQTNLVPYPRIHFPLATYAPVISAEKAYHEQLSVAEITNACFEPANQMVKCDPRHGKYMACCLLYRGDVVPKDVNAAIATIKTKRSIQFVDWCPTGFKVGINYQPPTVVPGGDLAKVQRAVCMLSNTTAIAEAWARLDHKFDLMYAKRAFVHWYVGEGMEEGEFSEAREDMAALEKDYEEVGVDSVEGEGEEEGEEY
microtubules, sequence (A8K068 whole entry, chain 2 of 2, further chain): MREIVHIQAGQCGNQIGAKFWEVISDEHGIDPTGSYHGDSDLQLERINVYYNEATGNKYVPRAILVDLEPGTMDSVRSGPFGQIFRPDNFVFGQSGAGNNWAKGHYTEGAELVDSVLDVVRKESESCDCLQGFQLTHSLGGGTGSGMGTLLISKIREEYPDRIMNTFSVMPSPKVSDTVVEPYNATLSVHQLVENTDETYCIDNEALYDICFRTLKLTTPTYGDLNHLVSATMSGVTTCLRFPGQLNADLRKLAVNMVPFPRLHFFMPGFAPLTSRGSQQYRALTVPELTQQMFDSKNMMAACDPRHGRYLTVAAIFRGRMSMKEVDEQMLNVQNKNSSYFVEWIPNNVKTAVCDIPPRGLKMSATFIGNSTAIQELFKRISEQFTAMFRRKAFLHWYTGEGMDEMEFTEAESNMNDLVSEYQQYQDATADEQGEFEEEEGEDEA
The term Kd denotes the concentration at which binding is half-saturated. Higher therefore signals a looser complex. As to “C. elegans KMN network containing KNL-1SD (from UniProt P34278 1-1010; Q17635 1-590) (complex)”, the Kd was 2.1 µM.

Consider “C. elegans KMN network containing KNL-1SD and the MIS-12SD complex (from UniProt P34278 1-1010; Q17635 1-590)”, for which the Kd was 5.3 µM. This Kd lies about 2.5-fold higher than the previous one. As to “C. elegans KMN network containing KNL-1SD and the NDC-80SD complex (from UniProt P34278 1-1010; Q17635 1-590)”, the dissociation constant (Kd) stood at 4.9 µM.
